The values below come from paper PMC12501296, “P4HA2 interacted with ATAD3A to modulate PINK1/parkin-dependent mitophagy and ^125I brachytherapy sensitization in esophageal carcinoma” (Cell Death & Disease, 2025).

This test addresses T1, ATAD3A-HA, in vitro translated (UniProt Q9NVI7-2 1-586).
T1 construct: ATAD3A (ATPase family AAA domain-containing 3A); the truncation map of the ATAD3A-HA plasmids ends at residue 586, which fits the 586-residue isoform; read as C-terminal; also called ATAD3A-HA (pcDNA3.1 vector); source: in vitro translated (TnT quick coupled transcription/translation, Promega), then purified
T1 sequence (looked up): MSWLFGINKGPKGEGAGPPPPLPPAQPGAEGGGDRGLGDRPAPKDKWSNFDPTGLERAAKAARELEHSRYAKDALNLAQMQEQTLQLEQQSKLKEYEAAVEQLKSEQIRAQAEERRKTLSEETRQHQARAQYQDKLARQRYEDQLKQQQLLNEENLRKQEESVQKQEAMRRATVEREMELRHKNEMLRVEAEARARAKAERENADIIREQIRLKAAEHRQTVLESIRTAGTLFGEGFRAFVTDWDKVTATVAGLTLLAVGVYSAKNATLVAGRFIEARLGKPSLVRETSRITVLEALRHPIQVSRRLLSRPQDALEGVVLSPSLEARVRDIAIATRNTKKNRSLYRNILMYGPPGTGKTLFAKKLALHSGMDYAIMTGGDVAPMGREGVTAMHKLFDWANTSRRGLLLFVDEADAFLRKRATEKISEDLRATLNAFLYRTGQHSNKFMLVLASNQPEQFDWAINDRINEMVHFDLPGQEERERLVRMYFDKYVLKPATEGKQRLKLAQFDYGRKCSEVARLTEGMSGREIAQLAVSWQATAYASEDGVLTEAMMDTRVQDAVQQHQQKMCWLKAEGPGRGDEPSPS
The experiment in a line: co-IP; P4HA2-FLAG and ATAD3A-HA made by TnT quick coupled transcription/translation (30 °C, 90 min), purified, then co-IP. Particulars: both partners purified.

B1: P4HA2-FLAG, in vitro translated (natural protein, UniProt O15460 1-535, looked up)
chain: MKLWVSALLMAWFGVLSCVQAEFFTSIGHMTDLIYAEKELVQSLKEYILVEEAKLSKIKSWANKMEALTSKSAADAEGYLAHPVNAYKLVKRLNTDWPALEDLVLQDSAAGFIANLSVQRQFFPTDEDEIGAAKALMRLQDTYRLDPGTISRGELPGTKYQAMLSVDDCFGMGRSAYNEGDYYHTVLWMEQVLKQLDAGEEATTTKSQVLDYLSYAVFQLGDLHRALELTRRLLSLDPSHERAGGNLRYFEQLLEEEREKTLTNQTEAELATPEGIYERPVDYLPERDVYESLCRGEGVKLTPRRQKRLFCRYHHGNRAPQLLIAPFKEEDEWDSPHIVRYYDVMSDEEIERIKEIAKPKLARATVRDPKTGVLTVASYRVSKSSWLEEDDDPVVARVNRRMQHITGLTVKTAELLQVANYGVGGQYEPHFDFSRNDERDTFKHLGTGNRVATFLNYMSDVEAGGATVFPDLGAAIWPKKGTAVFWYNLLRSGEGDYRTRHAACPVLVGCKWVSNKWFHERGQEFLRPCGSTEVD
notes: P4HA2 (Prolyl-4-Hydroxylase Alpha Subunit 2); read as C-terminal; also called P4HA2-FLAG (pcDNA3.1 vector); source: in vitro translated (TnT quick coupled transcription/translation, Promega), then purified
With B1, the binding result is listed as “binds”.
